B1: TGA (dsDNA)
DNA 1: GTGCCTGAGGCAG
DNA 2: CTGCCTCAGGCAC
B2: cCC/GGC (dsDNA)
DNA 1: GTCCCCGAGGCAG
DNA 2: CTGCCTCGGGGAC
B3: cCC/GGg (dsDNA)
DNA 1: GTCCCCGAGGGAG
DNA 2: CTCCCTCGGGGAC
B4: tCC/GGC (dsDNA)
DNA 1: GTTCCCGAGGCAG
DNA 2: CTGCCTCGGGAAC
B5: GmCC/GGC (dsDNA)
DNA 1: GTGCCCGAGGCAG
DNA 2: CTGCCTCGGGCAC
modifications: methylcytosine at position 4 of strand 1; second strand methylation not stated
B6: GCt/GGC (dsDNA)
DNA 1: GTGCTCGAGGCAG
DNA 2: CTGCCTCGAGCAC
B7: aCC/GGC (dsDNA)
DNA 1: GTACCCGAGGCAG
DNA 2: CTGCCTCGGGTAC
B8: N4 (4 bp spacer) (dsDNA)
DNA 1: GTGCCCGATGGCAG
DNA 2: CTGCCATCGGGCAC
B9: GCmC/GGC (dsDNA)
DNA 1: GTGCCCGAGGCAG
DNA 2: CTGCCTCGGGCAC
modifications: methylcytosine at position 5 of strand 1; second strand methylation not stated
B10: CGA (GCC(N3)GGC) (dsDNA)
DNA 1: GTGCCCGAGGCAG
DNA 2: CTGCCTCGGGCAC

What was measured:
Assay in all cases: ITC
TFAP2A DBD-HSH WT = TFAP2A DBD-HSH WT (Homo sapiens, UniProt P05549 203-420)
TFAP2A DBD-HSH WT, sequence (P05549 203-420): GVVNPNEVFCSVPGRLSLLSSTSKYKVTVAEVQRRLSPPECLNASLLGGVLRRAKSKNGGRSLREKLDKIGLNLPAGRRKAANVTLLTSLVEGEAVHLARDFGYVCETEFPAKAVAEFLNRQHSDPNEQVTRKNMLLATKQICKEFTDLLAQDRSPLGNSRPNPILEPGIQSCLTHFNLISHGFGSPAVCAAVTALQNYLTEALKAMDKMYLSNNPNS

TFAP2B DBD-HSH WT = TFAP2B DBD-HSH WT (Homo sapiens, UniProt Q92481 219-457)
TFAP2B DBD-HSH WT, sequence (Q92481 219-457): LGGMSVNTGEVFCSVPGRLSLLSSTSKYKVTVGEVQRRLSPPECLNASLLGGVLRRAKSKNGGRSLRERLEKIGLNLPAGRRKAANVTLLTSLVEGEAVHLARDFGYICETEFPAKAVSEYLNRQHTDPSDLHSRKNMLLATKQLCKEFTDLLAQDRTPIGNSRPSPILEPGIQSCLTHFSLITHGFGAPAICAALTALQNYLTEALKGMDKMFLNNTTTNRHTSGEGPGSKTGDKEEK

TFAP2A R217S = TFAP2A R217S (Homo sapiens, UniProt P05549 203-420, R217S)
TFAP2A R217S, sequence (P05549 203-420 R217S): as the sequence (P05549 203-420) above, with R15S counted along it

TFAP2B R300C = TFAP2B R300C (Homo sapiens, UniProt Q92481 219-457, R300C)
TFAP2B R300C, sequence (Q92481 219-457 R300C): as the sequence (Q92481 219-457) above, with R82C counted along it

TFAP2A G262E = TFAP2A G262E (Homo sapiens, UniProt P05549 203-420, G262E)
TFAP2A G262E, sequence (P05549 203-420 G262E): as the sequence (P05549 203-420) above, with G60E counted along it

TFAP2B V336I = TFAP2B V336I (Homo sapiens, UniProt Q92481 219-457, V336I)
TFAP2B V336I, sequence (Q92481 219-457 V336I): as the sequence (Q92481 219-457) above, with V118I counted along it

TFAP2B K276R = TFAP2B K276R (Homo sapiens, UniProt Q92481 219-457, K276R)
TFAP2B K276R, sequence (Q92481 219-457 K276R): as the sequence (Q92481 219-457) above, with K58R counted along it

TFAP2B R236C = TFAP2B R236C (Homo sapiens, UniProt Q92481 219-457, R236C)
TFAP2B R236C, sequence (Q92481 219-457 R236C): as the sequence (Q92481 219-457) above, with R18C counted along it

TFAP2B R285Q = TFAP2B R285Q (Homo sapiens, UniProt Q92481 219-457, R285Q)
TFAP2B R285Q, sequence (Q92481 219-457 R285Q): as the sequence (Q92481 219-457) above, with R67Q counted along it

TFAP2B L284S = TFAP2B L284S (Homo sapiens, UniProt Q92481 219-457, L284S)
TFAP2B L284S, sequence (Q92481 219-457 L284S): as the sequence (Q92481 219-457) above, with L66S counted along it

Binder | Kd (TFAP2A DBD-HSH WT) [nM] | Kd (TFAP2B DBD-HSH WT) [nM] | further results
B1 | 17 ± 1 | 19 ± 2 | 
B2 | 78 ± 16 | 55 ± 7 | 
B3 | 336 ± 53 | 355 ± 57 | 
B4 | 565 ± 87 | 248 ± 49 | 
B5 | 347 ± 3 | 299 ± 22 | 
B6 | 694 ± 71 | 461 ± 71 | 
B7 | 373 ± 46 | 313 ± 69 | 
B8 | 341 ± 20 | 340 ± 17 | 
B9 | 107 ± 3 | 126 ± 12 | 
B10 | 19 ± 1 | 18 ± 2 | binding result (TFAP2A R217S): no binding; Kd (TFAP2B R300C): 88 ± 20 nM; Kd (TFAP2A G262E): 129 ± 22 nM; Kd (TFAP2B V336I): 44 ± 9 nM; Kd (TFAP2B K276R): 382 ± 36 nM; binding result (TFAP2B R236C): no binding; Kd (TFAP2B R285Q): 178 ± 43 nM; binding result (TFAP2B L284S): no binding
